Key:
[1] = molecular target: linear hepcidin variant (human); assay: BIAcore: 1 nM antibody preincubated with 10 nM of this hepcidin form in solution, then run over immobilized rhHepc surface; % = free antibody still binding the surface (low % = strong binding to the solution form)
[2] = molecular target: C1-C8, C3-C6 hepcidin variant (human); assay: as above

Binding to Hepcidin Surface (%) [1] [%] | Binding to Hepcidin Surface (%) [2] [%] | Binder
100 | 63 | rat anti-human hepcidin monoclonal antibody R9 (antibody, V domains shown) VH: QVTLKESGPGILQPSQTLSLTCSFSGFSLSTSGICVSWIRQPSGKGLEWLATICWEDSKGYNPSLKNRLTISKDTSNNQAFLKITSVDTADTAIYYCARPLNYGGYSELELDYWGQGVMVTVSS VL: DIQMTQSPSLLSASVGDRVTLSCKASQNIYKYLNWYQQKLGEAPKLLIYYTNSLQTGIPSRFSGSGSGTDFTLTISSLQPEDVATYYCYQYNSGPTFGAGTKLELK
100 | 25 | murine anti-human hepcidin monoclonal antibody Ab43 (antibody, V domains shown) VH: QIQLVQSGPELKKPGETVKISCKASGYTFTTYGMSWVKQAPGKGLKWMGWINTYSGVPTYADDFKGRFAFSLETSASTAYLQINNLKNEDTATYFCASLWYYGRAFDYWGQGTTLTVSS VL: NIVLTQSPASLAVSLGQRATISCRASESVDSYGNSFMHWYQQKPGQPPKLLIYLASNLESGVPARFSGSGSRTDFTLTIDPVEADDAATYYCQQNNEDRTFGGGTKLEIK
100 | 3 | murine anti-human hepcidin monoclonal antibody 2.7 (antibody, V domains shown) VH: QIQLVQSGPELKKPGETVKISCKASGYTFTTYGMSWVKQAPGKGLKWMGWINTYSGVPTYADDFKGRFAFSLETSASTAYLQINNLKNEDTATYFCGRDHYYGEVAYWGQGTLVTVSA VL: DIVLTQSPASLAVSLGQRATISCRASESVDSYGNSFMHWYQQKPGQPPKLLIYRASNLESGIPARFSGSGSRTDFTLTINPVEADDVATYYCHQSNEEYTFGGGTKLEIK
99 | 1 | murine anti-human hepcidin monoclonal antibody 2.41 (antibody, V domains shown) VH: QIQLVQSGPELKKPGETVKISCKASGYTFTTYGMSWVKQAPGKGLKWMGWINTSSGVPTYADDFMGRFAFSLETSASTAYLQINNLKNEDTATYFCARDRYYGEVAYWGQGTLVTVSA VL: DIVLTQSPASLAVSLGQRATISCRASESVDSFGNSFMHWYQLKPGQPPKLLIYRASNLESGIPARFSGSGSRTDFTLTINPVEADDVAIYYCQQSNEEYTFGGGTKLEIK
